Entries after “also recorded” stand apart in the source; their conditions may differ.
Legend:
[1] = target: T1, PapD (Escherichia coli, UniProt P15319); test: ELISA: PapD binding to peptides coated on microtiter wells; parameters: species or system E. coli; conditions: for binding of PapD to immobilized peptide: peptide coated on microtiter wells, ELISA with anti-PapD antiserum; for reduction of binding of PapD to the immobilized peptide: compared with G1′-19′WT peptide
T1 construct: (A) NAME/KEY: mat_; made in house; Lindberg et al. 1989
T1 sequence (P15319 22-239): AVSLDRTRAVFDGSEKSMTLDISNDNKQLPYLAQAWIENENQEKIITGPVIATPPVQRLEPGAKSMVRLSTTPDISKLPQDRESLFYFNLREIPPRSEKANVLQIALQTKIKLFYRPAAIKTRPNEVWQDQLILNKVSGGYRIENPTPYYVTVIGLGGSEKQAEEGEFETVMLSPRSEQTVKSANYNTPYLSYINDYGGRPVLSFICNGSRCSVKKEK
Procedure: FIG. 1: PapD binds to pilus subunit-related peptides coated in ELISA microtiter plates and in solution. A and B: The peptides from Table 1 were coated on microtiter wells and tested for their ability to bind to PapD in an ELISA assay described in example 2. Water insoluble peptides were dissolved in 2.5% acetic acid (AA) which had no effect on the binding of G1′-19′WT to PapD in this assay. Each group represents the average of duplicate wells.
5 mg/ml stock solutions of peptides in water or 50% acetic acid were diluted to a concentration of 2.5 pmol/50 μl in PBS. 50 μl of the peptide solution was coated overnight onto microtiter wells (Nunc-Immuno Plate Maxisorp) at 4° C. The solutions in the plates were discarded, and the wells were blocked with 200 μl 3% bovine serum albumin (BSA, Sigma) in PBS (120 mM NaCl/2.7 mM KCl/10 mM phosphate buffer salts, pH 7.4) for 2 hours at 25° C. The plates were washed vigorously 3 times with PBS and incubated with 50 μl of the indicated amount of purified PapD (Lindberg et al, 1989). After 3 washes with PBS, the wells were incubated with a 1:500 dilution of anti-PapD rabbit antiserum (Lindberg et al, 1989) in 3% BSA/PBS for 45 min. at 25° C. After 3 washes with PBS, the wells were incubated with a 1:1000 dilution of goat anti-rabbit IgG coupled to alkaline phosphatase (Sigma) in 3% BSA/PBS for 45 min. at 25° C. Following 3 washes with PBS and 3 washes with developing buffer (10 mM diethanolamine pH 9.5, 0,5 MM MgCl2), 50 μl filtered p-nitrophenyl phosphate substrate (Sigma) in developing buffer (10 mg/ml) was added. The absorbance at 405 nm was read after 60 min of incubation in the dark at 25° C.

[2] = target: T1, PapD; test: Protection of PapD against trypsin cleavage by peptides; type: biochemical, E. coli; conditions: preincubation with 20-fold molar excess of peptide
Procedure: A Lower: The rate of trypsin cleavage of PapD decreased upon preincubation with the G1′-19′WT, G1′-16′WT or K1′-19′WT peptides, but the G2′-21′amide peptide had no effect. 50 μg of purified PapD was preincubated for 15 min at 25° C. with a 20-fold molar excess of G1′-19′WT, G1′-16′WT, K1′-19′WT or G2′-21′amide peptides (any trypsin cleavage sites in these peptides occur at their amino termini where they were predicted not to interfere with PapD), or an equivalent volume of water. Each sample was then incubated at 37° C. with 3.2 μg of trypsin. Aliquots were removed after 0, 5, 10, 20, 30 and 40 min and boiled in SDS-PAGE sample buffer to stop the digestion. The samples were applied to 15% SDS-PAGE gels and the amount of full-length PapD remaining was determined by densitometry of Coomassie blue stained bands corresponding to full-length PapD which are shown.
400 μg of PapD was partially digested by incubation with either 4,5μg trypsin or 0.45 μg chymotrypsin on PBS for 20 min. at 37° C. The PapD digests were applied to a C-18 HPLC column (Beckman) and 2 major fragments were eluted with a 0-100% acetonitrile gradient in 0.01% trifluoroacetic acid. The PapD fragments were identified by their molecular weight on SDS-PAGE and amino-terminal sequencing. The N-terminal amino acid sequences of the approximately 14 kDa tryptic and chymotryptic fragments were identified as residues 100-108 and 104-109 of PapD, respectively, corresponding to cleavage after Lys-99 (for trypsin) and Leu-103 (for chymotrypsin). The N-terminal sequences of the 11 and 12 kDa bands in the digests were identical to the N-terminal sequence of PapD.

[3] = target: T2, PapD-PapG complex (Escherichia coli, UniProt P15319); test: Reconstitution assay: restoration of PapD-PapG complex from reduced, denatured PapD-PapG; type: binding, E. coli; conditions: PapD preincubated with peptide
T2 construct: (A) NAME/KEY: mat_; made in house
T2 sequence (P15319 22-239): T1 sequence (P15319 22-239)
Procedure: B: PapD incubated with the G1′-19′WT, G1′-16′WT, K1′-19′WT, and G2′-21′amide was added to reduced, denatured PapD-PapG and the amount of PapD-PapG complex restored in each sample was quantitated as described in example 2. The % inhibition represents the amount of the PapD-PapG complex restored with peptide-treated PapD compared to the amount of PapD-PapG complex restored with untreated PapD. The graph represent the average of 4 experiments. PapD and PapD-PapG complex were prepared as described in F. Lindberg et al, J. Bacteriol. 171, 6052 (1989) and S. J. Hultgren et al., Proc. Natl. Acad. Sci. USA 86, 4357 (1989).
FIG. 7: Ability of PapD Arg-8, Lys-112 and Thr-7 mutants to bind PapG and restore the PapD-PapG complex in vitro. 0.4 μg of PapD-PapG complex was reduced and denatured as described in FIG. 2B. The denatured PapD-PapG complex was then diluted with 0-630 ng purified wild type (WT) or mutant PapD. The amount of PapD-PapG restored in the samples was determined as in FIG. 2B and was graphed as a percentage of the greatest amount of PapD-PapG restored. The values graphed represent the average of 3 experiments. Wild type and mutant PapD and the PapD-PapG complex were purified as described in F. Lindberg et al, J. Bacteriol. 171, 6052 (1989) and S. J. Hultgren et al., Proc. Natl. Acad. Sci. USA 86, 4357 (1989).
The PapD-peptide solution was then added to the reduced, denatured PapD-PapG, incubated at 25° C. for 10 min, and applied to an IEF 3-9 gel (Pharmacia). The amount of PapD-PapG restored in each sample was quantitated by densitometry of the silver stained IEF band corresponding to the pI of the DG complex.

[4] = target: T1, PapD; test: ELISA: inhibition by peptides of PapD binding to MBP-G1′-140′ fusion protein; parameters: species or system E. coli; conditions: PapD preincubated with peptide at 1:25 ratio; preliminary results
Procedure: Stock solutions of MBP-G1′-140′ proteins in PBS were diluted to 0.1 μM with PBS. The wells of microtiter plates were coated with 50 μl of the protein solutions overnight at 4° C. The wells were washed with PBS, and blocked with 200 μl of 3bovine serum albumin (BSA) in PBS for 2 hours at 25° C. The plates were washed vigorously three times with PBS and incubated with 50 μl of 1-5 μM PapD proteins in […]-PBS for 45 minutes at 25° C. The PapD was preincubated with each of the peptides at a 1:25 ratio for 30 min before being added to the wells. After three washings with PBS, the wells were incubated with a 1:500 dilution of rabbit anti-PapD antiserum in BSA-PBS for 45 minutes at 25° C. After three washings with PBS, the wells were incubated with a 1:1000 dilution of goat antiserum to rabbit IgG coupled to alkaline phosphatase in 3BSA-PBS for 45 minutes at 25° C. After three washings with PBS and three washings with developing buffer (10 mM diethanolamine, 0.5 mM MgCl2), 50 μl filtered 1 mg/ml p-nitrophenyl phosphate in developing buffer was added, the reaction was incubated for 1 hour or longer if necessary in the dark at 25° C., and the absorbance at 405 nm was read.

[5] = Water solubility of peptides; type: physicochemical
[6] = target: T1, PapD; test: Soluble inhibition ELISA: PapD binding to G1′-19′WT-coated wells; parameters: species or system E. coli; conditions: 25-fold molar excess of peptide, 100 pmol/well PapD, compared to water
Procedure: Microtiter wells were coated overnight at 4° C. with 50 μl of 2,5 pmol/50 μl of the G1′-19′WT peptide. The wells were washed with PBS and blocked with 3% bovine serum albumin (BSA). A 25-fold molar excess of each test peptide was pre-incubated with 100 pmoles PapD for 30 min. and the PapD-peptide solution was then added to the coated wells and incubated at 25° C. for 45 min in the presence of 3% BSA/PBS. The subsequent primary antibody, secondary antibody and developing steps are described above. The ability of the peptides to inhibit binding of PapD to the G1′-19′WT peptide was calculated by dividing the amount of PapD binding in the presence of peptide with the amount of PapD binding in the presence of water. 0% inhibition includes values where binding was greater than that of PapD pre-incubated with H2O.

NH2-GKRKPGELSGSMTMVLSFP-COOH (H-GKRKPGELSGSMTMVLSFP-OH) [G1′-19′WT]
binding of PapD to immobilized peptide [1]: bound well | rate of trypsin cleavage of PapD [2]: decreased; also recorded: reduced the rate of tryptic cleavage of PapD | inhibition of restoration of the PapD-PapG complex by PapD [3]: inhibit restoration of the PapD-PapG complex

H-QNLIAGPFSATATLVASYS-OH [E1′-19′WT, NH2-QNLIAGPFSATATLVASYS-COOH]
binding of PapD to immobilized peptide [1]: moderately

H-TMVLSFP-OH [G1′-7′WT, NH2-TMVLSFP-COOH]
binding of PapD to immobilized peptide [1]: does not bind | inhibitory power on binding of PapD to MBP-G1′-140′ [4]: less active inhibitory peptides | solubility [5]: limited solubility

G1′-4′: 4 C-terminal amino acid residues of PapG (numbering of b394) (LSFP)
% Inhibition [6]: 0%

NH2-GKRKPVELSGSMTMVLSSP-COOH (H-GKRKPVELSGSMTMVLSSP-OH) [G1′-19′SV]
reduction of binding of PapD to the immobilized peptide [1]: 36%

NH2-KPGELSGSMTMVLSFP-COOH (H-KPGELSGSMTMVLSFP-OH) [G1′-16′WT]
binding of PapD to immobilized peptide [1]: binds | rate of trypsin cleavage of PapD [2]: decreased; also recorded: reduced the rate of tryptic cleavage of PapD | inhibition of restoration of the PapD-PapG complex by PapD [3]: inhibit restoration of the PapD-PapG complex | inhibitory power on binding of PapD to MBP-G1′-140′ [4]: significantly more potent

H-SGSMTMVLSFP-OH [G1′-11′WT, NH2-SGSMTMVLSFP-COOH]
binding of PapD to immobilized peptide [1]: binds | inhibitory power on binding of PapD to MBP-G1′-140′ [4]: significantly more potent

NH2-KSVVPGDYEATATFELTYR-COOH (H-KSVVPGDYEATATFELTYR-OH) [K1′-19′WT]
binding of PapD to immobilized peptide [1]: tight binding | binding of PapD to immobilized peptide ([1]; listed as PapK): moderately | rate of trypsin cleavage of PapD [2]: decreased; also recorded: reduced the rate of tryptic cleavage of PapD | inhibition of restoration of the PapD-PapG complex by PapD [3]: inhibit restoration of the PapD-PapG complex

G1′-8′: octameric peptide from the C-terminus of PapG (MTMVLSFP)
inhibitory power on binding of PapD to MBP-G1′-140′ [4]: significantly higher inhibitive effect; also recorded: significantly more potent

NH2-YALAPNAVIPTSLALL-COOH (H-YALAPNAVIPTSLALL-OH) [MS, random hydrophobic peptide, reference compound]
binding of PapD to immobilized peptide [1]: no binding | % Inhibition [6]: 1%

NH2-GILNGGDFQTTASMAMIYN-COOH (H-GILNGGDFQTTASMAMIYN-OH) [F1′-19′WT]
binding of PapD to immobilized peptide [1]: moderately

NH2-EEGKRKPGELSGSMTMVLSF-CONH2 (H-EEGKRKPGELSGSMTMVLSF-NH2) [G2′-21′amide]
reduction of binding of PapD to the immobilized peptide [1]: approximately 75% | binding of PapD to immobilized peptide [1]: reduced binding of PapD | % Inhibition [6]: 0% | rate of trypsin cleavage of PapD [2]: had no effect and not | inhibition of restoration of the PapD-PapG complex by PapD [3]: has no effect

NH2-GKRKPGELSGSMTMVLSFP-CONH2 (H-GKRKPGELSGSMTMVLSFP-NH2) [G1′-19′ amide]
binding of PapD to immobilized peptide [1]: did not affect binding to PapD

G1′-6′: length series of peptides from the C-terminus of PapG, 6 residues (MVLSFP)
inhibitory power on binding of PapD to MBP-G1′-140′ [4]: less active inhibitory peptides

NH2-KKLEAGNYFAVLGFRVDYE-COOH (H-KKLEAGNYFAVLGFRVDYE-OH) [H1′-19′ WT]
binding of PapD to immobilized peptide [1]: no binding
